Tested on: K4 kissing-loop RNA reporter
Assay: apparent KD of K4 kissing-loop reporter; higher = weaker reporter binding
Conditions: Eterna round: R107
Description: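 RNA-MaP round R107: designed RNA switches with theophylline, tryptophan, arginine or FMN aptamers are transcribed on-chip within common flanks. They are titrated with a labelled K4 kissing-loop RNA reporter in RNA-MaP buffer (100 mM Tris pH 7.5, 80 mM KCl, 4 mM MgCl2), without ligand or with the indicated ligand. Median apparent KD per design.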

[1] = input ligand: theophylline 20 uM
[2] = input ligand: tryptophan 2.4 mM
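Also: bound reporter read as fluorescence of individual clusters on recovered sequencing chips by microscopy, with normalized cluster intensities fitted with a binding model.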

| Sequence | apparent KD of K4 kissing-loop reporter (input ligand: FMN 200 uM) [µM] | apparent KD of K4 kissing-loop reporter (input ligand: arginine 13.2 mM) [µM] | apparent KD of K4 kissing-loop reporter (input ligand: none) [µM] | apparent KD of K4 kissing-loop reporter [1] [µM] | apparent KD of K4 kissing-loop reporter [2] [µM] |
| --- | --- | --- | --- | --- | --- |
| CGCGUUGGUUGAGAGGUUGGCGCGAAUGAUACCAGUAUAUAAGAAUACCCUUGGCAGCAUAAGAAAGAUAUAGUGAUGUUGUAUA [SSTheophA.I] | 0.469 | 0.232 | 0.454 | 0.289 | 0.42 |
| GCUAUGGUAGGAAGGAGCGCUGCCUUGUUUUUACGAGUGAUGUUCGGAAGCAGGGCGUUAAAGCAGGUAGGUCGCCUACUAUAGC [Arginine B K4 22] | 0.22 | 0.135 | 0.152 | 0.147 | 0.146 |
| AAAUAUUGUUACCUGUUAACAUAGGGCCAACGAGGACCGGUACGGCCGCCACUCGUCUCAUAGCGAGUGAUGUUCGCACCGCCCA | 0.133 | 0.0582 | 0.0766 | 0.123 | 0.126 |
| CGCUUAGUGAUGUUUGAUUUGGCGCAUGCAGAGGAUAUAGGGUGCUUUAGAAGGCUGAGGAGUGCGCCGAGUGAUGUUCGGCGCU [Exclusion FMN A GF12] | 0.183 | 0.141 | 0.212 | 0.162 | 0.166 |
| AGAGUUAAUUAGUCAUUUUUCACAUUAAGUCAGGAUAUCGUAUUUUCGAGAAGGGACACAUGCUAGUGAUGUUAGCUAUUUCUCA [JR_Nu_ExcFMNA_Sub021] | 0.0636 | 0.0939 | 0.0683 | 0.105 | 0.0569 |
| CCGGGCGGCCGAAGGAGCGGGCGGACCCGAGUGAUGUUCGGGUGGACCGUGAGGUCCGGUGCCCAGGUAGGUCGCGGUUCCGUCC [#2 Same State - Arginine B Attempt #6 (HarryS)] | 0.2 | 0.101 | 0.159 | 0.0975 | 0.121 |
| UUUUUGGUUUAGAGUGAUGUUCCUUGUUUUCGAGGACCGGUACGGCCGCCACUCGAAAAGAAAAGAAAAGAAAAGAGUGAUGUUU [BDazzled - #1 SS Tryptophan A] | 0.342 | 0.252 | 0.362 | 0.311 | 0.258 |
| AAACGUUGGUGCGAUACCAGCUGCUCGGAAACGAGCUUGCUGGAGUGAUGUUCCAGGAAAAGCCCUUGGCAGCGCACCGACGAAA [MAT - Same State Theophlline B - Mod of Eli - D27] | 0.856 | 0.561 | 2.04 | 0.738 | 0.715 |
| UUUUAAUAAAAGGAUACCAGUACAAAUAAAGUACAUUAAUAGUAGAGUGAUGUUCUAAAGUACCCUUGGCAGCUUAGAGUAAGUU [#17 K4 Theophylline B Exclusion] | 0.12 | 0.253 | 0.16 | 0.228 | 0.0851 |
| UAUAAGCGCAGAGGAUAUACUAGCUUUCACUAGUGCAGUGAUGUUGCACUAGACCAGCUGUACAUAGUAGAAGGCUGCGUUCCUU [FMN B SS t1] | 0.0891 | 0.116 | 0.112 | 0.131 | 0.117 |
| GACGGGUUGCUGCUCAAUCCGUCGCAUGAUCGAGGACCGGUACGGCCGCCACUCGAGGCCAUGCCGUACGAGUGAUGUUCGUGCG [Xeerlaus] | 0.387 | 0.327 | 0.324 | 0.388 | 0.19 |
| AUUUAAUUAACUGAUACCAGACUUAAUGUUUUGUAUAUUACUAGUGAUGUUAGUGAUUCUGUCCCUUGGCAGCAGUAUCUACUUA [JR_ExcTheophyB_Sub014] | 0.14 | 0.152 | 0.152 | 0.153 | 0.117 |
| GCAGACACGCAGUGAUGUUGCGAAACGGAAGGAGCGCGUGAAAACGCAGGUAGGUCGCCGACACAUAAAUUAUAAUUUUGUUUGC [Arginine A K4 14] | 0.253 | 0.214 | 0.246 | 0.237 | 0.205 |
| CGCGACGUGGUCACGCCAGUCUCGUUAACCAAGGAUAUUGAGAAGACAAGAAGGUGGAUGUACCAUAGUGAUGUUGUGGUCAGUA [theeternabot_sameState_KL_FMN_A_17] | 0.416 | 0.356 | 0.465 | 0.448 | 0.388 |
| AGUAUGUAAUAUGGCAUAUUUAGAACUGAAGGAGCGCCGAAUAAGGCAGGUAGGUCGCGGAAAUAUGAGUGAUGUUCAUGUUUAA [KL-SSArg-A25] | 0.088 | 0.103 | 0.101 | 0.113 | 0.0828 |
| GCUACUGCUGAAGGAUAUAUCAAUAGAGUGAUGUUCUAUGUCGGUAGCCCGAAAGGGCUACCGACGAUAGAAGGUCAGCAGUAGC | 0.113 | 1.02 | 0.723 | 1.07 | 0.983 |
| CCAGCAAAGCUGGUCGCCAAACAACGGGCACGAGGACCGGUACGGCCGCCACUCGUGAGGACGAGUGAUGUUCGUUCACGGGCGA | 0.815 | 0.587 | 1.69 | 0.602 | 0.302 |
| CACGAUGAAUUCUCUAGGAGUGAUGUUUUUCGAGGACCGGUACGGCCGCCACUCGGACCAGGAACGUGGGAGCGGCGAAAAGACU [jbmullin] | 0.665 | 0.312 | 0.93 | 0.5 | 0.343 |
| GAAUUGACGAGUGAUGUUCGUCCACAAUACCGAGGACCGGUACGGCCGCCACUCGAGCAAUGUGAAUAGGGUCGCGUUUUGCAGU | 0.294 | 0.266 | 0.295 | 0.352 | 0.187 |
| GCGUUACUGAAAGGAUAUGAUCAACAUAGUGGUCAGUGAUGUUGGCAGGCCUCGUGGCGAGGUAGAUCAGAAGGUUCAUUACGAC [theeternabot_sameState_KL_FMN_B_11] | 0.415 | 0.484 | 0.553 | 0.502 | 0.482 |
| UAUAUAUGAUGUGAUACCAGUGAAAAGCCAGUGAUGUUGGUAGAACUGGUAUAUAAAUAACACCCUUGGCAGCACAAUCACGUAU [whbob_Ex_Theo_B_sa96] | 0.155 | 0.134 | 0.147 | 0.191 | 0.146 |
| GGCGUCAAACCAGAACUAGUGAUGUUGGUUCGAGGACCGGUACGGCCGCCACUCGAUCUCUUGGUCCAUCGCGGAAGGGCAGCGG [theeternabot_exclusion_KL_Trp_A_29] | 0.511 | 0.369 | 0.532 | 0.414 | 0.622 |

| Sequence | apparent KD of K4 kissing-loop reporter (input ligand: FMN 200 uM) [µM] | apparent KD of K4 kissing-loop reporter (input ligand: arginine 13.2 mM) [µM] | apparent KD of K4 kissing-loop reporter (input ligand: none) [µM] | apparent KD of K4 kissing-loop reporter [1] [µM] | apparent KD of K4 kissing-loop reporter [2] [µM] |
| --- | --- | --- | --- | --- | --- |
| UGGGAUGUUAAAGGAUAUAGAAAGUGAUAUUAGAAAGUGAGUGAUGUUGAUGUAAGUGAUGAUAUGUUAGAAGGUUAACAAAACG [abcd] | 0.431 | 0.363 | 0.499 | 0.472 | 0.379 |
| CCGUGGAGUGAUGUUCCACGUAAUACGGAUACCAGCUUUGCCAAAGGCCCUUGGCAGCCGCACGUUGCAGUGAUGUUGUGGCGCG [Same State Theophylline A G8] | 0.191 | 0.143 | 0.183 | 0.162 | 0.149 |
| UGUAUGUGAUUUGAUACCAGACCAUCUUGUGAGAAGUGAGUGAUGUUUAUUUUGGUUUGGGUCCCUUGGCAGCAAAUCGCAUACU [KL-SSTheoB23] | 0.777 | 0.56 | 0.826 | 0.619 | 0.738 |
| AAAUAAAUCACGGCCGCCACUGCUAGAGUGAUGUUCUAUUAAUAAUUUCUAAAUUAUAUAAUACUCAGGACCGGGUGAUUUUUAA [JR_SSTryptoB_Sub020] | 0.578 | 0.215 | 0.355 | 0.426 | 0.446 |
| GGUAGCAUGGCGGCCGCCACUACAAGUAGUGACCCAAGUGAUGUUUGGAAGCGGGUCCUAAUUGGUAGGACCGGGCCAUGCUACC | 0.509 | 0.502 | 0.496 | 0.401 | 0.566 |
| ACGUCAUAUGUAAUGGUGGUUUCGAUCGAUACCAGUAGCGAGAGUUACCCUUGGCAGCGACAUGAGUGAUGUUCAUGUAUGAAGA [KL-XTheo-A2 #analogue] | 0.116 | 0.109 | 0.107 | 0.12 | 0.105 |
| UGAUUAAGCAGUGAUGUUGCAAGUAAUGAUACCAGUUAAGAAGAGAACCCUUGGCAGCAUAAAGUGCGCUCUGAUGAGUGUGCUU [whbob_SS_Theo_A_w53] | 0.101 | 0.153 | 0.123 | 0.169 | 0.0956 |
| CCCGUGGGUUUGAGAGGGCUUGUGGGAAGUAAGGAUAUUUAGGGAGAAAGAAGGUACUAUAGAAUAUAGUGAUGUUAUAUAUGGG [#06 K4 FMN A Same State] | 0.238 | 0.218 | 0.232 | 0.126 | 0.17 |
| CCUAUCUCAUACGAUACCAGUGAAUUUAUGUUUAUUAGCAGUGAUGUUGCGUUCCAAGUACACCCUUGGCAGCGUAUGGGAUAGG [Ex Theophylline B K4 24] | 0.139 | 0.168 | 0.147 | 0.143 | 0.113 |
| GGCCGCAAGGCGAGCGCUCCCACUCCGGAAGGAGCGCCCGCAAGGGCAGGUAGGUCGCCGGAGUGAUGUUCCGGUGGAGGGCUCG [#2 Exclusion - Arginine A Attempt #16 (Inspired by Omei)] | 0.398 | 0.271 | 0.369 | 0.127 | 0.338 |
| UCACAAGUUAACUAGUGAUGUUAGUUAGUACGAGGACCGGUACGGCCGCCACUCGAAAAGUGGUUUUACGGACUUUUGGGCAGGC [theeternabot_sameState_KL_Trp_A_17] | 0.337 | 0.25 | 0.268 | 0.223 | 0.26 |
| GUAGACAGACUGCAAGCCUAGUCUACAGACUAGGAUAUCAGGAAACUGAGAAGGAGUCUAGUUGCAGUGAUGUUGCAAGAAUAAU [KL-SSFMN-A24] | 0.12 | 0.135 | 0.123 | 0.14 | 0.0998 |
| AUAUUUAUUUAGUCACUUUUCAUAUUAUGUCAGGAUAUCGUAUUUUCGAGAAGGGACUCAUGGUAGUGAUGUUACCUAUUUCUCA [#03 K4 FMN A Exclusion] | 0.196 | 0.382 | 0.387 | 0.404 | 0.303 |
| UAGGUUUAAUCGGCCGCCACUAUCAGAGCGCCAGUGAUGUUGGAGUAACGAUCGUGGCGAGUUAAUAGGACCGGGAUUCAACACA [Velazaer] | 0.159 | 0.141 | 0.141 | 0.152 | 0.156 |
| GUGCAGUGAUGUUGCACGAGGAAAGACGAUACCAGCCGUAAAUAAGGCCCUUGGCAGCGUGGGCUAGCACAAAAUAUGCUAGUCU [Laleingeat] | 0.0979 | 0.0996 | 0.107 | 0.0684 | 0.117 |
| CGGAGUGAUGUUCCGUUAAUUAAUUAUUUACGAGGACCGGUACGGCCGCCACUCGAUUUUGCUUUUAUUUAAUGUUUGGAAAUUU [JR_SSTryptoA_Sub006] | 0.135 | 0.143 | 0.142 | 0.146 | 0.101 |
| GAUAGGAAACUAUCAAAUCGGGAAACCGAUACCAGUAUGGAUUCAUACCCUUGGCAGCGGGAUUAUAAAAUAGGAGUGAUGUUCC [Theophylline A K4 16] | 0.219 | 0.213 | 0.22 | 0.241 | 0.189 |
| AACUGCUAAGAGGUUAAGCACGUCAUUAUGAAGGAUAUAGAAUUCACUAGAAGGUCAUGUGCCCUGAGUGAUGUUCAGAUAGGCG [theeternabot_sameState_KL_FMN_A_25] | 0.294 | 0.229 | 0.236 | 0.421 | 0.336 |
| CCAGGAUGAUGAGGAUGAUAAAUUACUGAAGGAGCGCAUAUGGUUGCAGGUAGGUCGCGGUGAAUAAGUAUAGUGAUGUUAUGCC [SSArgA.Y] | 0.97 | 0.612 | 0.561 | 0.801 | 0.761 |
| UAAUAUCAACUUGUAGGAGUGAUGUUCCGCCGAGGACCGGUACGGCCGCCACUCGACAAAAUCUCAGUGUGGUACCUAGGAAUUU [theeternabot_exclusion_KL_Trp_A_24] | 0.406 | 0.313 | 0.374 | 0.352 | 0.431 |
| UGCGCUAUGUCCUAAAAUGUCCUCCGGGAUACCAGAGUCUUUUUAUUCCCUUGGCAGCUUGAGUGAUGUUUGAUGCCGUUCUUGU [nnbvmullin] | 0.708 | 0.294 | 0.551 | 0.355 | 0.415 |

From the supplement of paper PMC9170038
